Experimental data from publication PMC4499158, “Outwitting EF-Tu and the ribosome: translation with d-amino acids”.

Target: EF-Tu (GTP form) (Escherichia coli K12 MG1655, UniProt P0CE47 1-394)
Assay: EMSA; GTP; L-Gln-tRNA; Native PAGE EMSA; EF-Tu preincubated with GTP, phosphoenol pyruvate and pyruvate kinase, 20 µl reactions, 3'-32P aminoacyl-tRNA; buffer, salt, pH and temperature not in the material
Conditions: protein: recombinant; tags: StrepTag or TwinStrep-Tag; label: 3' 32P; tRNA cloverleaf

Sequence of EF-Tu (GTP form) (P0CE47 whole entry): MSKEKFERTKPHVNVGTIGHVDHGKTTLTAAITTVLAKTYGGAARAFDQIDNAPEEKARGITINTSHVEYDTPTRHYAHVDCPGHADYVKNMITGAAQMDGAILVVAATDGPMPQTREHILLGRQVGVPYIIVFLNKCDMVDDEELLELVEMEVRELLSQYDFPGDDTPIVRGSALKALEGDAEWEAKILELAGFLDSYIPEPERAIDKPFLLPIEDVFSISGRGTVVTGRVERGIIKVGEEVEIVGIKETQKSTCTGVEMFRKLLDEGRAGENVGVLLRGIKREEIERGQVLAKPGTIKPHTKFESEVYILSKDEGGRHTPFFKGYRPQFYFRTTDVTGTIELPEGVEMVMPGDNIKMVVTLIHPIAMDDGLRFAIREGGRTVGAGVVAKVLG

B1: tRNAGly tp (structured_RNA)
RNA: GCGGGCGUAGUUCAAUGGUAGAACGAGAGCUUCCCAAGCUCUAUACGAAGGUUCGAUUCCUUCCGCCCGCUCCA
modifications: 3'-aminoacyl as per row
binding result: binds
